Consider five molecules from publication PMC5055493, “The PilZ domain of MrkH represents a novel DNA binding motif” (Protein & Cell, 2016).

In one data set the target is T1, MrkH (Klebsiella pneumoniae, UniProt G3FT00).
T1 construct: full-length MrkH, YcgR-N plus PilZ domains; monomer; recombinant
The experiment in a line: ITC. Type of data set: binding.

In another data set the target is T2, MrkH^105-end (Klebsiella pneumoniae, UniProt G3FT00).
T2 construct: PilZ domain with interdomain linker, residues 105-end
The experiment in a line: ITC. Type of data set: binding. From the text:
ITC on MrkH^105-end | MrkH^105-end also binds to c-di-GMP efficiently

The target of data set [1] is T3, MBP-MrkH (Klebsiella pneumoniae) (UniProt G3FT00).
T3 sequence: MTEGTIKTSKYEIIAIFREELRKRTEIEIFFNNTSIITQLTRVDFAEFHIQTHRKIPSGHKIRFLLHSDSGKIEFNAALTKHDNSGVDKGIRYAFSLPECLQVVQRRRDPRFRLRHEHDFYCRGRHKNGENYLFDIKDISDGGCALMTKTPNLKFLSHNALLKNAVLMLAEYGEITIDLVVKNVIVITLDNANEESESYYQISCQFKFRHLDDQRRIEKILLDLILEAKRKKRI
In words: EMSA. The conditions noted are these: EMSA: 50 mM Tris pH 8.0, 100 mM NaCl, 5 mM MgCl2, 20 ul, 100 min on ice; FP: 10 nM FAM-DNA, 25 C, buffer not fully given. Fig. 2G Kd values (High, 10.3, High …). Background: Mobility shift assays separate free from complexed probe on a gel.

Data set [2] deals with T4, MBP-MrkH-PilZ domain (Klebsiella pneumoniae) (UniProt G3FT00).
T4 sequence: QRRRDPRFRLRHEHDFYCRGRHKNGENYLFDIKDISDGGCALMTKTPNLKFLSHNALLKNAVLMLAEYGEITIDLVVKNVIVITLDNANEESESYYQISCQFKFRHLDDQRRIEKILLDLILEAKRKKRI
In words: EMSA. The conditions noted are these: EMSA: 50 mM Tris pH 8.0, 100 mM NaCl, 5 mM MgCl2, 20 ul, 100 min on ice; FP: 10 nM FAM-DNA, 25 C, buffer not fully given. Fig. 2G Kd values (High, 10.3, High …).

For data set [3], the target named is T5, MrkH (tag removed) (Klebsiella pneumoniae) (UniProt G3FT00).
T5 sequence: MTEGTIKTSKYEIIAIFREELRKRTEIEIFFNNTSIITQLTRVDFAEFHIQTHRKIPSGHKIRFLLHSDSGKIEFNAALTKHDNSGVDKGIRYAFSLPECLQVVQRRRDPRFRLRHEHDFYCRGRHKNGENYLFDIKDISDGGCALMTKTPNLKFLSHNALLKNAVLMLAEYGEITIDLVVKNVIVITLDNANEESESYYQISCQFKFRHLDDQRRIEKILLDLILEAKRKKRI
In words: fluorescence polarization. To be noted: EMSA: 50 mM Tris pH 8.0, 100 mM NaCl, 5 mM MgCl2, 20 ul, 100 min on ice; FP: 10 nM FAM-DNA, 25 C, buffer not fully given. Fig. 2G Kd values (High, 10.3, High …). Background: In fluorescence polarisation assays a small probe gives low polarisation when free and higher when bound to something large.

Data set [4] addresses T6, MrkH (tag removed) (Klebsiella pneumoniae, UniProt G3FT00 1-234). The experiment in a line: fluorescence polarization; no c-di-GMP; EMSA: 50 mM Tris pH 8.0, 100 mM NaCl, 5 mM MgCl2, 20 ul, 100 min on ice; FP: 10 nM FAM-DNA, 25 C, buffer not fully given. Fig. 2G Kd values (High, 10.3, High, 7.5, 24.3, 10.6, 12.7, High) cannot be assigned to mutants. PilZ mutants of Fig. S3B (all lose mrkA binding in EMSA) are not individually named in the material. To be noted: protein: recombinant; tags: none (tag removed for FP); label: 5'-FAM; blunt.

A further data set addresses MrkH K207A (Klebsiella pneumoniae, UniProt G3FT00 1-234, K207A). The experiment in a line: fluorescence polarization; little effect of mutation; EMSA: 50 mM Tris pH 8.0, 100 mM NaCl, 5 mM MgCl2, 20 ul, 100 min on ice; FP: 10 nM FAM-DNA, 25 C, buffer not fully given. Fig. 2G Kd values (High, 10.3, High, 7.5, 24.3, 10.6, 12.7, High) cannot be assigned to mutants. PilZ mutants of Fig. S3B (all lose mrkA binding in EMSA) are not individually named in the material. The conditions noted are these: protein: recombinant; tags: none; label: 5'-FAM; blunt.

The next data set deals with MrkH K163A (Klebsiella pneumoniae, UniProt G3FT00 1-234, K163A). Described as above. To be noted: protein: recombinant; tags: none; label: 5'-FAM; blunt.
Another data set addresses MrkH K89A (Klebsiella pneumoniae, UniProt G3FT00 1-234, K89A). The description is as above. The conditions noted are these: protein: recombinant; tags: none; label: 5'-FAM; blunt.
A further data set concerns the target MrkH K154A (Klebsiella pneumoniae, UniProt G3FT00 1-234, K154A). Described as above. The conditions noted are these: protein: recombinant; tags: none; label: 5'-FAM; blunt.
In data set [5] the target is T6, MrkH (tag removed). The experiment in a line: fluorescence polarization; EMSA: 50 mM Tris pH 8.0, 100 mM NaCl, 5 mM MgCl2, 20 ul, 100 min on ice; FP: 10 nM FAM-DNA, 25 C, buffer not fully given. Fig. 2G Kd values (High, 10.3, High, 7.5, 24.3, 10.6, 12.7, High) cannot be assigned to mutants. PilZ mutants of Fig. S3B (all lose mrkA binding in EMSA) are not individually named in the material. The conditions noted are these: protein: recombinant; tags: none (tag removed for FP); label: 5'-FAM; blunt.

Regarding `Nc1nc2c(ncn2[C@@H]2O[C@@H]3CO[P@](=O)(O)O[C@H]4[C@@H](O)[C@H](n5cnc6c(=O)[nH]c(N)nc65)O[C@@H]4CO[P@](=O)(O)O[C@H]3[C@H]2O)c(=O)[nH]1` [c-di-GMP], the values for the Kd at MrkH and on MrkH^105-end were ~0.24 µM and 0.45 ± 0.1 µM, respectively.
For “ACTTAAGTTTTTATCCTTCGACCGGTCTCCAGCTTGGAGGCCGTTGTCGTTTTTGTCATGACCAAAATTCGAAACTCTTGATTACAGGAAATACAATATCAAATTCCAAGTTTATACATATCAATCTGGCTGCAAAGATAGTCAATAACATCAAACGCTCATAAAAACATCTGATTAACCCAATCAGAATGTTGCTATTGCTATAAGAAAAATCAAACGCCTCACGACAACTATTTACAAGGGATGCAT (double strand) [mrkHI promoter 250 bp]”, the binding entry in data set [1] and in [2] was “binds” in each case.
Consider “GCTGCGCTGTAAACAACCACCCTCGCGTTTTCATCTATCAATGGCTGTTTATTAATAGTCGATGGTTATCTGTTATATAACTTAATGAAACGTGAACAAATGTATATTTGTCGGCGAATAAATAGCATTCTTTGACGCCGATAGCACCAGCGAACTTATATTTTTAGGTTCGTTACCTGACGCCTTAAATATTGCGGCTCCCGGTCAGTCGAAGATTCTATTAGCAGTGGCATAAATCAGCATCGCCTGATGTTTCTGGTTCTATGCGAATTCACAGTGTGCT (double strand) [PmrkA -117 to +166 (FAM)]”, for which, in data set [3], the Kd came to 3.07 µM.

B1: PmrkA -117 to -37 (FAM) (dsDNA)
DNA 1: GCTGCGCTGTAAACAACCACCCTCGCGTTTTCATCTATCAATGGCTGTTTATTAATAGTCGATGGTTATCTGTTATATAA
DNA 2: TTATATAACAGATAACCATCGACTATTAATAAACAGCCATTGATAGATGAAAACGCGAGGGTGGTTGTTTACAGCGCAGC
B1: the Kd with MrkH (tag removed) [4] worked out at 8.24 ± 2.23 µM. The binding result with MrkH K207A, with MrkH K163A, with MrkH K89A and in the data set with MrkH K154A was “binds” in each case.

B2: 80 bp random sequence (FAM) (dsDNA)
DNA 1: ATAAATAGCATTCTTTGACGCCGATAGCACCAGCGAACTTATATTTTTAGGTTCGTTACCTGACGCCTTAAATATTGCGG
DNA 2: CCGCAATATTTAAGGCGTCAGGTAACGAACCTAAAAATATAAGTTCGCTGGTGCTATCGGCGTCAAAGAATGCTATTTAT
For B2, in the data set with MrkH (tag removed) [5], the Kd came out at 7.45 ± 2.81 µM.

Broadly, the Kd is a measure of binding affinity in units of concentration.
